Each block holds one substance with its values, some of them ahead of it.
Assays:
[1] = biological target: human αVβ6 integrin on cells (human) (UniProt P06756); assay: cell-based or functional assay
[2] = biological target: human αV on parental A375M cells, which express αVβ3 and αVβ5, but not αVβ6 (human) (UniProt P06756); assay: FACS, parental A375M cells, day 1
[3] = biological target: human αV on parental A375M cells, which express αVβ3 and αVβ5, but not αVβ6 (human) (UniProt P06756); assay: FACS, parental A375M cells, day 2
soluble αVβ6 (human) = soluble αVβ6 (human) (UniProt P06756); assay: ELISA on coated soluble αVβ6, 1 ug/mL
[4] = biological target: mouse αV (HEK-293 cells transfected with mouse αV alone) (mouse) (UniProt P43406); assay: FACS, HEK-293 transfected with mouse αV
[5] = biological target: mouse β6 (HEK-293 cells transfected with mouse β6 alone) (mouse) (UniProt Q9Z0T9); assay: FACS, HEK-293 transfected with mouse β6
[6] = biological target: mouse αVβ6 on cells (mouse) (UniProt P43406); assay: FACS, HEK-293 transfected with mouse αVβ6
[7] = biological target: cynomolgus αV (HEK-293 cells transfected with cynomolgus αV alone) (cynomolgus); assay: FACS, HEK-293 transfected with cynomolgus αV
[8] = biological target: cynomolgus β6 (HEK-293 cells transfected with cynomolgus β6 alone) (cynomolgus); assay: FACS, HEK-293 transfected with cynomolgus β6
[9] = biological target: cynomolgus αVβ6 on cells (cynomolgus); assay: FACS, HEK-293 transfected with cynomolgus αVβ6
[10] = biological target: human αVβ6 integrin on cells (human) (UniProt P06756); assay: FMAT, HEK 293 cells overexpressing αVβ6, 1 ug/mL
[11] = biological target: mouse αVβ6 on cells (mouse) (UniProt P43406); assay: FACS, K562 cells expressing mouse αVβ6 (parental 15)
[12] = biological target: cynomolgus αVβ6 on cells (cynomolgus); assay: FACS, K562 cells expressing cynomolgus αVβ6 (parental 15)
[13] = biological target: cynomolgus αVβ6 on cells (cynomolgus); assay: FACS, HEK-293 transfected with cynomolgus αV and β6, day 1
[14] = biological target: cynomolgus αVβ6 on cells (cynomolgus); assay: FACS, HEK-293 transfected with cynomolgus αV and β6, day 2
[15] = biological target: α4β1 integrin (on J6.77 cells) (UniProt P13612); assay: cell-based or functional assay
[16] = biological target: human αV on parental A375M cells, which express αVβ3 and αVβ5, but not αVβ6 (human) (UniProt P06756); assay: cell-based or functional assay
[17] = biological target: mouse αVβ6 on cells (mouse) (UniProt P43406); assay: FACS, K562 cells expressing mouse αVβ6 (parental 23)
[18] = biological target: cynomolgus αVβ6 on cells (cynomolgus); assay: FACS, K562 cells expressing cynomolgus αVβ6 (parental 23)
[19] = biological target: mouse αVβ6 on cells (mouse) (UniProt P43406); assay: FACS, K562 cells expressing mouse αVβ6 (parental 46)
[20] = biological target: cynomolgus αVβ6 on cells (cynomolgus); assay: FACS, K562 cells expressing cynomolgus αVβ6 (parental 46)
[21] = biological target: α5β1 integrin (on K562 cells) (UniProt P08648); assay: cell-based or functional assay
[22] = biological target: mouse αVβ6 on cells (mouse) (UniProt P43406); assay: FACS, K562 cells expressing mouse αVβ6 (parental 12)
[23] = biological target: cynomolgus αVβ6 on cells (cynomolgus); assay: FACS, K562 cells expressing cynomolgus αVβ6 (parental 12)

Sequence of mouse αVβ6 on cells (mouse) (P43406 31-1044, chain 1 of 2): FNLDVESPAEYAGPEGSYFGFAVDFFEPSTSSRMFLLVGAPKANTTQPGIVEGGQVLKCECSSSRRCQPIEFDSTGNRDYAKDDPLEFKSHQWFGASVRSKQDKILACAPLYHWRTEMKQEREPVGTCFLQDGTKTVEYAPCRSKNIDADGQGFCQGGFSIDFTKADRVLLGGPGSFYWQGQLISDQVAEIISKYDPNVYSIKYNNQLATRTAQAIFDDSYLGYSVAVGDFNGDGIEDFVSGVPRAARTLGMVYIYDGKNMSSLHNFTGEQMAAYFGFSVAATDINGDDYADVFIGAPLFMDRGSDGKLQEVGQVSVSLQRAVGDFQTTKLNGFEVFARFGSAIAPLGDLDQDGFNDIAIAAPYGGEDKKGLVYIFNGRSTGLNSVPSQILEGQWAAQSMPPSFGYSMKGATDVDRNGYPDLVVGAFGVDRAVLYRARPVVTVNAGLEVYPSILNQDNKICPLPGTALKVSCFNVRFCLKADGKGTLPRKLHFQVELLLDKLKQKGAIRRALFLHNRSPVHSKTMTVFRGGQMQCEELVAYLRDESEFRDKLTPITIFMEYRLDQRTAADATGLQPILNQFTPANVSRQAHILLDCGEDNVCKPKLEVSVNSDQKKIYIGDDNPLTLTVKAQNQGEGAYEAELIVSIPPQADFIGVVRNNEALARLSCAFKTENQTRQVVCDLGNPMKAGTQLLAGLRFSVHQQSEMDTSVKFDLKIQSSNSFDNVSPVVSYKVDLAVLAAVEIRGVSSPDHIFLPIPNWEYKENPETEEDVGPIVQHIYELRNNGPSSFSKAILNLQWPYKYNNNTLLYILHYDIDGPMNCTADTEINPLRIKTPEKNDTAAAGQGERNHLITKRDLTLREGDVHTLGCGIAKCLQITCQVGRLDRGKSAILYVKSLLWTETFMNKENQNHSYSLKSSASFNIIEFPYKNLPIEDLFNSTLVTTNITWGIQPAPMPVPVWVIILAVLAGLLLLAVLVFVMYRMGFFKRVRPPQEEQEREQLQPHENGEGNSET
Sequence of mouse αVβ6 on cells (mouse) (Q9Z0T9 22-787, chain 2 of 2, further chain): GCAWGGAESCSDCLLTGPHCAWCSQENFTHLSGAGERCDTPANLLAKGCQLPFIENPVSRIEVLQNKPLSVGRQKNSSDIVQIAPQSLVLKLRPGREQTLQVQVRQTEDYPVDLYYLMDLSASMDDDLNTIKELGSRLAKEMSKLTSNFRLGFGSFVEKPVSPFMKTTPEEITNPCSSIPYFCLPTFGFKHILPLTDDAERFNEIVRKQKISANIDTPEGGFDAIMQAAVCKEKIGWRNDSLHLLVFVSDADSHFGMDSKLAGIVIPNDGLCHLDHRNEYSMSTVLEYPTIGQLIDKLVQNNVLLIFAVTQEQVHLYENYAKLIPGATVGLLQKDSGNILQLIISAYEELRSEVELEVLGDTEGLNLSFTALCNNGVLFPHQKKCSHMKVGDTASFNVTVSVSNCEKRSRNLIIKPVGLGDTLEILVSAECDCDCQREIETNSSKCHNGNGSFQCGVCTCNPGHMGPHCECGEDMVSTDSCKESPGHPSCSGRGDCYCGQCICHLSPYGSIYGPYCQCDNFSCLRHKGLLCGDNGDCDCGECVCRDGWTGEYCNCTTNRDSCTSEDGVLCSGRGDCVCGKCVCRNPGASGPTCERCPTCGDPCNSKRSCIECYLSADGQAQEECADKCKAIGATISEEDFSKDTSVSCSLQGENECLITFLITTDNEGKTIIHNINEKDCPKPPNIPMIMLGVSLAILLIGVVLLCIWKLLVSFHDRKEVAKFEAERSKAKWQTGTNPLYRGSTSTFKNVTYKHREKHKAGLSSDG
Sequence of human αVβ6 integrin on cells (human) (P06756 31-1048, chain 1 of 2): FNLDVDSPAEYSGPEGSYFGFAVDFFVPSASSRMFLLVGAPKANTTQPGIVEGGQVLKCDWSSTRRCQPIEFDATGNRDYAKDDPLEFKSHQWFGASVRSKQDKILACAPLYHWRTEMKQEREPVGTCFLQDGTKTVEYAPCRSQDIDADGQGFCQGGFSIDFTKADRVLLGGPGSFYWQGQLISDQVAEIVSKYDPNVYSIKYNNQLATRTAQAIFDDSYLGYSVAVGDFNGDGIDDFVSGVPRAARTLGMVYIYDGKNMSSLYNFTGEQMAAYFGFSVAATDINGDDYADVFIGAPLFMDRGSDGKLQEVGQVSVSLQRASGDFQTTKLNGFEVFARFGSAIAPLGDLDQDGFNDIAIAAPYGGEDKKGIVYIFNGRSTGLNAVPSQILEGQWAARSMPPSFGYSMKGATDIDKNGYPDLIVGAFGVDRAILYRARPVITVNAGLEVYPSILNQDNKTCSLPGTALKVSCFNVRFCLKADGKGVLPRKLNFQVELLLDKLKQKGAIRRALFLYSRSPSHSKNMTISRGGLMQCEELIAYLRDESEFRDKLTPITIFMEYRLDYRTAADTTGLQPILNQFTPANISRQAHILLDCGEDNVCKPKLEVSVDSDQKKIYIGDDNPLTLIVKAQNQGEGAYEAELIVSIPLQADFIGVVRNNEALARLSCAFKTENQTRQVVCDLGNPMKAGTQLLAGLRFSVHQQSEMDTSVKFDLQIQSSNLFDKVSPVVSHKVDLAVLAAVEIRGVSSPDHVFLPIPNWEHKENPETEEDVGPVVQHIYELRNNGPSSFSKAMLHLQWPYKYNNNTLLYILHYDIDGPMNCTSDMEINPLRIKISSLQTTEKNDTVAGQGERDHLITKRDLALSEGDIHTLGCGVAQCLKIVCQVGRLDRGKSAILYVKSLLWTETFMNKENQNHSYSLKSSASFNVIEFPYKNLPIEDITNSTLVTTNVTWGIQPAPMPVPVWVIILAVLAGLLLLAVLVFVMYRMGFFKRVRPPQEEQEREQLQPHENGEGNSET
Sequence of human αVβ6 integrin on cells (human) (P18564 22-788, chain 2 of 2, further chain): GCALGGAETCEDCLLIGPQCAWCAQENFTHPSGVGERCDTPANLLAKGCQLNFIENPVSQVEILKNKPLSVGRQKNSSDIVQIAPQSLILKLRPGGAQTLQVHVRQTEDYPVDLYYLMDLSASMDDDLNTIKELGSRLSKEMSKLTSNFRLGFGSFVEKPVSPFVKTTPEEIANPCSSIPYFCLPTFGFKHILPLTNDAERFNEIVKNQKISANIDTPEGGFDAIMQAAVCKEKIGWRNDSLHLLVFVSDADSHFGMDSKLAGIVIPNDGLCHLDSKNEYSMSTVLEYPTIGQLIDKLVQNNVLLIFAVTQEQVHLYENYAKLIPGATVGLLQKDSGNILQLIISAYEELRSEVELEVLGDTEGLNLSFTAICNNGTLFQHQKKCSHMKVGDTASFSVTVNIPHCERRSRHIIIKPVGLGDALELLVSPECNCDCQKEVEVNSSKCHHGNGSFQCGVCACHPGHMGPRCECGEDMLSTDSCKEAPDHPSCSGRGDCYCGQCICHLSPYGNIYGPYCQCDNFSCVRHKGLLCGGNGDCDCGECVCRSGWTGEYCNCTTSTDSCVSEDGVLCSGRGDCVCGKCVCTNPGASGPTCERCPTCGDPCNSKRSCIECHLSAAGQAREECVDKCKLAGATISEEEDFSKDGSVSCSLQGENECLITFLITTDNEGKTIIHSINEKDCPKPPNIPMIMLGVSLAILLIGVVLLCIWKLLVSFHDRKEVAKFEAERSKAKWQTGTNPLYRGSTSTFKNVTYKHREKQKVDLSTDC
Sequence of human αV on parental A375M cells, which express αVβ3 and αVβ5, but not αVβ6 (human) (P06756 31-1048 A375M): as the sequence (P06756 31-1048, chain 1 of 2) above, with A345M counted along it
Sequence of mouse αV (HEK-293 cells transfected with mouse αV alone) (mouse) (P43406 31-1044): as the sequence (P43406 31-1044, chain 1 of 2) above
Sequence of mouse β6 (HEK-293 cells transfected with mouse β6 alone) (mouse) (Q9Z0T9 22-787): as the sequence (Q9Z0T9 22-787, chain 2 of 2, further chain) above

Estimated IC50, n = 1 (HT29 adhesion to TGFβLAP) [1]: 0.226 µg/mL
Estimated IC50, n = 2 (HT29 adhesion to TGFβLAP) [1]: 0.185 µg/mL
Estimated IC50, n = 3 (HT29 adhesion to TGFβLAP) [1]: 0.286 µg/mL
% Cells Shifted [2]: 30%
GeoMean [2]: 2.03
% Cells Shifted [3]: 5%
GeoMean [3]: 15.4
ELISA OD (soluble αVβ6 (human)): 6
percent of cells shifted [4]: 1%
percent of cells shifted [5]: 11%
percent of cells shifted [6]: 45%
percent of cells shifted [7]: 0%
percent of cells shifted [8]: 5%
percent of cells shifted [9]: 20%
FMAT Count [10]: 67
FMAT FL1 [10]: 659
FMAT FL1 × Count [10]: 44200
Geometric Mean Shift [11]: 122
Geometric Mean Shift [12]: 84
% Cells Shifted [13]: 42%
GeoMean [13]: 55.5
% Cells Shifted [14]: 11%
GeoMean [14]: 28.1
Substance: murine αVβ6 antibody (Cat#MAB2077z, Chemicon)

Percent Inhibition (J6.77 adhesion to CS-1 peptide of fibronectin, 5 ug/ml) [15]: 13%
Substance: Human IgG2 (antibody)

% Cells Shifted [2]: 4%
GeoMean [2]: 1.67
% Cells Shifted [3]: 3%
GeoMean [3]: 11.2
% Cells Shifted [13]: 1%
GeoMean [13]: 8.85
% Cells Shifted [14]: 0%
GeoMean [14]: 11.2
Substance: Mouse IgG2 with Murine Secondary Antibody

Percent Inhibition (A375M adhesion to osteopontin peptide, 5 µg/ml) [16]: 5%
Substance: Mouse IgG Control (antibody)

Geometric Mean Shift [17]: 36
Geometric Mean Shift [18]: 25
Substance: Mouse IgG2a (antibody)

Percent Inhibition (J6.77 adhesion to CS-1 peptide of fibronectin, 5 ug/ml) [15]: 15%
Substance: Human IgG4 (antibody)

Percent Inhibition (J6.77 adhesion to CS-1 peptide of fibronectin, 5 ug/ml) [15]: 26%
percent of cells shifted [4]: 1%
percent of cells shifted [5]: 0%
percent of cells shifted [6]: 1%
percent of cells shifted [7]: 1%
percent of cells shifted [8]: 1%
percent of cells shifted [9]: 0%
Geometric Mean Shift [19]: 108
Geometric Mean Shift [20]: 54
Substance: Human IgG1 (antibody)

Percent Inhibition (A375M adhesion to osteopontin peptide, 5 µg/ml) [16]: 3%
% Inhibition (K562 adhesion to fibronectin) [21]: -12%
Percent Inhibition (K562 adhesion to FN9-10 peptide of fibronectin, 5 µg/ml) [21]: 11%
% Cells Shifted [2]: 5%
GeoMean [2]: 1.66
% Cells Shifted [3]: 1%
GeoMean [3]: 7.23
% Cells Shifted [13]: 1%
GeoMean [13]: 9.54
% Cells Shifted [14]: 0%
GeoMean [14]: 7.39
Substance: Human IgG Isotype Control (antibody)

Geometric Mean Shift [22]: 20
Geometric Mean Shift [23]: 13
Substance: Mouse IgG1 (antibody)
